# Measured values published in FireProtDB (doi:10.1021/bi00128a004).
# Values joined by “and” are separate entries in the source; they are usually repeats but may differ in a detail not shown here. Equal entries are not always repeated.
# B1: Tissue-type plasminogen activator, P00750 (parent)
# chain: MDAMKRGLCCVLLLCGAVFVSPSQEIHARFRRGARSYQVICRDEKTQMIYQQHQSWLRPVLRSNRVEYCWCNSGRAQCHSVPVKSCSEPRCFNGGTCQQALYFSDFVCQCPEGFAGKCCEIDTRATCYEDQGISYRGTWSTAESGAECTNWNSSALAQKPYSGRRPDAIRLGLGNHNYCRNPDRDSKPWCYVFKAGKYSSEFCSTPACSEGNSDCYFGNGSAYRGTHSLTESGASCLPWNSMILIGKVYTAQNPSAQALGLGKHNYCRNPDGDAKPWCHVLKNRRLTWEYCDVPSCSTCGLRQYSQPQFRIKGGLFADIASHPWQAAIFAKHRRSPGERFLCGGILISSCWILSAAHCFQERFPPHHLTVILGRTYRVVPGEEEQKFEVEKYIVHKEFDDDTYDNDIALLQLKSDSSRCAQESSVVRTVCLPPADLQLPDWTECELSGYGKHEALSPFYSERLKEAHVRLYPSSRCTSQHLLNRTVTDNMLCAGDTRSGGPQANLHDACQGDSGGPLVCLNDGRMTLVGIISWGLGCGQKDVPGVYTKVTNYLDWIRDNMRP
# Variants of: B1
# Conditions: Homo sapiens; pH 8; Thermal; DSC; Tris - Oac/100mM NaOAc 50 mM; structure 1PML; whole UniProt chain shown
Variant,Tm,"change of melting temperature, mutant - wild type (higher = more stable)"
W288Y,81.6 °C,
W288F,,-1.7 °C
W288S,73.7 °C and 76.5 °C,-3.5 °C
W288L,71.7 °C and 73.9 °C,-3.7 °C
